Experiment: yeast display, Sf9 membrane polyspecificity reagent, FACS + sequencing; frameworks hold sequencing errors
How it was run: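 A synthetic nanobody library was expressed on Saccharomyces cerevisiae BJ5465 by galactose induction for 36–48 hours. The library was stained for 1 hour at 4 °C with 10% biotinylated, detergent-solubilized Sf9 membrane reagent and enriched with streptavidin microbeads before FACS. Low and high (top ~1%) gates were set on anti-HA fluorescence for expression and streptavidin fluorescence for reagent binding, and each polyreactivity label reflects the gate of origin.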

Sequence | polyreactivity (PSR sort gate)
QVQIVESGGGLVQAGGSLRLSCAASGITLSYNAMGWYRPATEKDRELVAGISYSGGRTYYADSVKGRFTISRDNAKNTVYLQMYSLKPEVTAVYYCATDLYISFRYGGYFWGQGTQVTVSS | high polyreactivity
QVQIVESGGGLVQAGGSLRLSCAASGLTFILYAMGWYRQAPGKERELVAAISYDGGSTYYADSVKGRFTISRDNAKNTVYLQMNSLKPEDTAVYYCAADSYYYQGYRRYNYDYWGQGTQVTVSS | high polyreactivity
QVQIVESGGGLVQAGGSLRLSCAASGRIFIRYSMGWYRHAPGIERELVAAISSGGRTYYADSVKGRFTISRDNATNTVYLQMNSLNPEDTAVYYCARASSIARYDNWGQGTQVTVSS | high polyreactivity
QVQIVESGGGLVQAGGSLRLSCAASGRIFRRYVMGWYRPAPGKERELVAAITKSGTSTYYADSVKGRFTISRDNAKNTVYLQMNSLKPEDTAVYYCAAVPYQSKYPRFGYWGQGTQVTVSS | high polyreactivity
QVQIVESGGGLVQAGGSLRLSCAASGRIFYAYAMGWYRQAPGKERELVAAISSGGSTKYADSVKGRFTISRDNAKNTVYLQMNSLKPEDTAVYYCNADATALSFGTLFDYWGQGTQVTVSS | low polyreactivity
QVQIVESGGGLVQAGGSLRLSCAASGRILWDYAMGWYRQATGKEWELVAAIDWSAGSTYYADSVKGRFTISRDTAKNTVYLQMNSLKPEDTAVYYCYIDYTYYYEDDFWGQGTQVTVSS | low polyreactivity
QVQIVESGGGLVQAGGSLRLSCAASGRISKFYTMGWYRQAPGKERELVADISYSGGSTYYADSVKGRFTISRDIEKNTVYLQMNSLKPEDTAVYFCSVDGLQRAIDYWGQGTQVTVSS | high polyreactivity
QVQIVESGGGLVQAGGSLRLSCAASGRSYAINAMGSYRQAPGKERELDASITTRDSSTYYADSVKGRFTISRDNAKNTVYLHMNSLKPEDTAVYYCAKVKLVTYLYRLFVYGSYYWGQGTLVTVSS | low polyreactivity
QVQIVESGGGLVQAGGSLRLSCAASGRTFGIYAMGWYRQAPGKERELVDAIRWRDGSTYYADSVKGRFTISRDNAKNTVYLQMTSLKPEDTAVYYCAATSRVYVRGSYWKYGYWGQGTQVTVSS | high polyreactivity
QVQIVESGGGLVQAGGSLRLSCAASGRTFQYYTMGWSRQAPGKEREFVAAIRDSGGSTYYADSVKGRFTISRDNAKNTVYLQMNSLKPEDTAVYYCAAYRPRKYDYWGQGTQVTVSS | high polyreactivity
QVQIVESGGGLVQAGGSLRLSCAASGRTFRYYTMGWYIQAPGKERELVAVISRSGGSTYYADSVKGRFTISRDNAKNTVYLQMNSLKPEDTAVYYCNAGYWRFIDSYDYWGPGTQVTVSS | high polyreactivity
QVQIVESGGGLVQAGGSLRLSCAASGRTFSKYAMGWYRQSTWKERELVASITWSGGTTNYADSVKGRVTISRDNAKNTVYLQMNSLKPEDTAVFYCNAQIASDGFNPGKSDYWGLGTQVTVSS | low polyreactivity
QVQIVESGGGLVQAGGSLRLSCAASGRTFYYNAMGWYRQAPGKERELVAAITWSGGGTYYADSVKGRFTISRDNAKNTVYLQMNSLKPEDTAVYYCAKTPGWTDYDYWGQGTQVTVSS | high polyreactivity
QVQIVESGGGLVQAGGSLRLSCAASGRTLKFNTMGWYRQAPGKERELVAAISGSGGSTYYADSVKGRFTISRDNAKNTVYLQMNSLKPEDTAVYYCAKYGVLRGYGYDYWGQGTQVTVSS | high polyreactivity
QVQIVESGGGLVQAGGSLRLSCAASGSIFASYTMGWYRQAPGKERELGATIRRTGSTYYADSVKGRFTISRDNAKNTVYLQMNSLKPDDTAVYYCAAGLRRKQGLTSGYEYGGQGTQVTVSS | high polyreactivity
QVQIVESGGGLVQAGGSLRLSCAASGSIFDGNAMGWYRQAPGKERELVAAITWRGTRTYYADSVKGRFTISRDNAKNTVYLQMNSLKPEDTAVYYCAATSYSTYILGGTRRYDYWGQGTLVTVSS | high polyreactivity
QVQIVESGGGLVQAGGSLRLSCAASGSIFDKNAMGWYRQAPGKEREFVAAITWSDGNTYYADSVKGRFTISRDNAKNTVYLQMNSLKREHTAVYYCNADALGVFWDRGGWFDDYWGQGTQVTVSS | low polyreactivity
QVQIVESGGGLVQAGGSLRLSCAASGSIFGTYAMGRYRQAPGKERELVAAINSGDSTYYADSVKGRFTISRDNAKNTVYLQMNSLKPEDTAVYYCGARETYWSGYFIYYYWGQGTQVNVSS | high polyreactivity
QVQIVESGGGLVQAGGSLRLSCAASGSIFRRYAMGWYRQEPGKERELVAAISSNGGSTYNADSVKGRFTISRDNAKNTVYLQMNSLKPEDTAVYYCNAPPLYRDEYWGQGTQVSVSS | high polyreactivity
QVQIVESGGGLVQAGGSLRLSCAASGSIFTFYAMGWYRQAPGKERELVATINRIGGNTYYADSVKGRFTISRDNAKNTVYLQINSLKPEDTAVYYCAAKPTYRGYGYGSWGQGTQVTVSS | low polyreactivity
QVQIVESGGGLVQAGGSLRLSCAASGSIFTYYAMGWYRQAPGKERELVAAINWSGGSTYYADSVKGRFTISRDNAKNTVYLQMNSLKPEDTAVYYCATDYYARRHSPRYDYWGQGTQLTVSS | low polyreactivity
QVQIVESGGGLVQAGGSLRLSCAASGSIFWFYAMGWSRQAPGKERELVAAITWNGGRTYYADSVKGRFTISRDNAKNTVYLQMNCLKPEDTAVYYCNKVSGYDVDYWGHGTQVTVSS | high polyreactivity

Sequence | polyreactivity (PSR sort gate)
QVQIVESGGGLVQAGGSLRLSCAASGSIFWPYTMGWYRQAPGKERELVAAISYSGGRTYYADSVKGRFTISRDNAKNTVYLQMNRLKPEDTAVYYCAAGTYSRGSREDYWGQGTQVTVSS | high polyreactivity
QVQIVESGGGLVQAGGSLRLSCAASGSIFYRNAMGWYRQAPGKERELVAAISSDGSTNYADSVKGRFTISRDNAKNTVYLQMNSLKPEDTAVYYCAAPWTQILDYWGQGTQVTVSS | low polyreactivity
QVQIVESGGGLVQAGGSLRLSCAASGSISVANAMGWYRQAPGKDRELVAAITDSGDDTYYADSVKGRFTISRDIAKNTVYLQMNSLKPEDTAVYYCAVEAWSVPPYDYWGQGTQVTVSS | low polyreactivity
QVQIVESGGGLVQAGGSLRLSCAASGSTFDDYVMGWYRQAPGKEREFVAAISTNGGSTYYADSVKGRFTISRDNAKNTVYLQMNSLKPEDTAVYYCAAESQDFYAILGLYDYWGQGTQVTVSS | low polyreactivity
QVQIVESGGGLVQAGGSLRLSCAASGSTFDYYAMGWYRQAPGKERELVAGISASGGSTYYADSVKGRFTISRDNAKNTVYLQMNRMKPEDTAVYYCASYYKPPGYDYWGQGTQVTVSS | low polyreactivity
QVQIVESGGGLVQAGGSLRLSCAASGSTFSRYAMGWYRQAPGKERELVAVITKSGGRTYYADSVKGRFRISRDNAKNTVYLQKHSLKAEDTADYYCAAYPNKSQTADGYWGQGTQVTVSS | high polyreactivity
QVQIVESGGGLVQAGGSLRLSCAASGSTIIRNAMGWSRQAPRKERELVAAISTSGGRTHYADSVKGRFTISRDNAKNTVYLQMNSLKPEDTAVYYCASRGKGHYYYWGQGTQVTVSS | high polyreactivity
QVQIVESGGGLVQAGGSLRLSCAASGTTFDAYAMGWYRQAPGKERELVAAITNAGSTNYADSVKGRFTISRDNAKNTVYLQMNSLKPEETAVYYCATDWYHRYLDGRYDYWGQGTQETVSS | low polyreactivity
QVQIVESGGGLVQAGGSLRLSCAASGTTFRFYAMGWYRQAPGKERELVAAIRRGGSTYYADSVKGRFTISRDNAKNTVYLQMNSLKPEDTAVYFCAAEPGYYSRPDYRVYRLYYWGLGTQVTVSS | high polyreactivity
QVQIVESGGGLVQAGGSLRLSCAASVRTQRYYDMGCYRQAPVKERELVAAISSGGSTYYGDSLKGRFSISRDNAKNTVYLEMNSLKPEDTEVYYCAKRVSNWVSGGGYYYWGQCTQVTVSS | high polyreactivity
QVQIVESGGGLVQAGGSLRLSCAAYGSIFVRNVMGWYRQAPGKERELVATIRYRGGSTYYADSVKGRFTISRDNAKNTVYLQMNSLKPEDTAVYYCNARYLWADEYYYWGQGTQVTVSS | low polyreactivity
QVQIVESGGGLVQAGGSLRLSCAPSGSTFGSNAMGWYRQAPGKERELVAAIRWSGGSTYYADSVKGRFTISRDNAKNTVYLQMNSLKPEDTAVYYCNAVYGRQYRGYNYKYYYWGQGTQVTVSS | high polyreactivity
QVQIVESGGGLVQAGGSLRLSCGASGRIFYNYALGWYRQAPGKERELVAAISGSGGSTYYADSVKGRFTISRDNAKNTVYLQMNSLKPEDTAVYYCSTSGPQYYSRNFDYWGQGTQVTVSS | low polyreactivity
QVQIVESGGGLVQAGGSLRLSSAASGITFRHYAMGWYRQAPGKERELVAAITSRGGSTYYADSVKGRFTISRDNAKNTVYLQMNSLKPEDTAVYYCAKGTVHSRPDFGRGWYRWDDYWGQGSQVTVSS | high polyreactivity
QVQIVESGGGLVQAGGSLRLSSASSGRTLRQYAMGWYRPAHWKERDLVAAIRTNGGRTYYADSVMRRFTISRVNSKNTVYLQMNSLKPEDTAVYYCAVYAVVLGVLFDYWGQGTQVTVSS | high polyreactivity
QVQIVESGGGLVQAGGSLRLTCAASGGIFARYTMGWYRQAPGKERELVATITSGGGTNYADSVKGRFTISRDNAKNTVYLQMISLKPEDTAVYYCAASPRAVSYGPDDRQQYDYWGQGSQVTVSS | low polyreactivity
QVQIVESGGGLVQAGGSLRVSCAASGITFGNYDMGWYRQAPGKERELVAAITGSGGRTYYADSVKGRFTISRDNEKNTVYLQMNSLKPEDTAVYYCNRRQYGRKKQYDYWGQGTQVTVSS | high polyreactivity
QVQIVESGGGLVQAGGSLSLSCAASGRTISWYTMGWYRQAPGKERELVAGISSSGGSTYYADSVKGRFTISRDNAKNTVYLQLNSLKPEDTADYFCAAGDFRYVDRYGDMEYWGQGTQVTVSS | low polyreactivity
QVQIVESGGGLVQAGGSLSLTCAASGSIITSNDMGWYRQAPGKERELVAAISKSGGRTYYAYSVKGRFTISRENEKNTDYLQMNCLKQEYTAVYYCHAGIYGYGYNPSYDYWGQGTQVTLSS | high polyreactivity
QVQIVESGGGLVQARGSLRLSCAAYGRIIYRYAMGWYRQAPGKERELVAAISASGRTYYADSVKGRFTISRDNAKNTVYLQMNSLKPADTAVYYCAKVAAGSLGSWGQGTQVTVSS | high polyreactivity
QVQIVESGGGLVQAVGSLRLSCAASGFIFMANAMGWYRQAPGKERELVAAITTGGRTNYADSVKGRFTISRDNAKNTVYLQMNSLKPEDTAVYYCAARYINGWVRSFYYWGQGTQVNVSS | high polyreactivity
